Series [1] has as its target T1, GST-GSG-CreGO (glycolate oxidase CreGO) (Chlamydomonas reinhardtii, UniProt F8WQN2, Y27S/V111G, form not given).
T1 construct: gene CHLRE_03g171300v5
To be noted: read-out: GST-GSG-CreGO-Y27S/V212R/V111G; 10 mM phenylhydrazine, 100 mM PBS pH 6.5, 40 °C; O2 as co-substrate; substrate range 0-100 mM; V111G is misprinted V11G in parts of the text.

Substrate in the series “purified protein”: O=C(O)CO
As to the kind of experiment: purified protein. To be noted: 10 mM phenylhydrazine, 100 mM PBS pH 6.5, 40 °C, O2 as co-substrate, substrate range 0-100 mM.

T1 sequence (F8WQN2 whole entry Y27S/V111G, form open): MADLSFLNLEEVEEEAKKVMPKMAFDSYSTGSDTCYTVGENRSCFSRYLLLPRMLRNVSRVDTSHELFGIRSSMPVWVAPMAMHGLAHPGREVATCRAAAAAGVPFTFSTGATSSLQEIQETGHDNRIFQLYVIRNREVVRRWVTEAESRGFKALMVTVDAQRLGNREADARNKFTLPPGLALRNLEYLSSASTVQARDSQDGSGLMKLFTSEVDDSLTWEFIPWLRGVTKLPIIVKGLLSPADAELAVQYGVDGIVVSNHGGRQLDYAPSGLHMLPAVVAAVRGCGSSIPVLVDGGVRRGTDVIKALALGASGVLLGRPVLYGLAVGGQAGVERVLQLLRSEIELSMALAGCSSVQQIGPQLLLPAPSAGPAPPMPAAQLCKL

With `O=C(O)CO` [sodium glycolate], in series [1], the Km stood at 600 ± 40 µM.

B1: GST-GSG-CreGO (glycolate oxidase CreGO) (Chlamydomonas reinhardtii) (protein)
chain: MADLSFLNLEEVEEEAKKVMPKMAFDYYSTGSDTCYTVGENRSCFSRYLLLPRMLRNVSRVDTSHELFGIRSSMPVWVAPMAMHGLAHPGREVATCRAAAAAGVPFTFSTVATSSLQEIQETGHDNRIFQLYVIRNREVVRRWVTEAESRGFKALMVTVDAQRLGNREADARNKFTLPPGLALRNLEYLSSASTVQARDSQDGSGLMKLFTSEVDDSLTWEFIPWLRGVTKLPIIVKGLLSPADAELAVQYGVDGIVVSNHGGRQLDYAPSGLHMLPAVVAAVRGCGSSIPVLVDGGVRRGTDVIKALALGASGVLLGRPVLYGLAVGGQAGVERVLQLLRSEIELSMALAGCSSVQQIGPQLLLPAPSAGPAPPMPAAQLCKL
As to B1, in “purified protein”, the Km was determined as 1000 ± 50 µM, the maximal velocity (Vmax) is 7.2 µmol/min/mg, the kcat is 4.9 s⁻¹ and the kcat/Km is 4900 M⁻¹ s⁻¹.

Source of the values: publication PMC10385363, “Enhancing the Catalytic Activity of Glycolate Oxidase from Chlamydomonas reinhardtii through Semi-Rational Design” (Microorganisms, 2023).
